Target: T1, HLA-A*02:01 (human)
T1 construct: MHC monomers first loaded with a UV-sensitive peptide (not identified) that is cleaved and exchanged for the test peptide; captured on streptavidin-coated plates and detected with anti-β2m; also called peptide-receptive MHC molecules; MHC class I
Assay: UV-ligand exchange, anti-b2m ELISA; peptide exchange yield grade
Text: Candidate peptides for T cell based therapies according to the present invention were further tested for their MHC binding capacity (affinity). The individual peptide-MHC complexes were produced by UV-ligand exchange, where a UV-sensitive peptide is cleaved upon UV-irradiation and exchanged with the peptide of interest as analyzed. Only peptide candidates that can effectively bind and stabilize the peptide-receptive MHC molecules prevent dissociation of the MHC complexes. To determine the yield of the exchange reaction, an ELISA was performed based on the detection of the light chain (β2m) of stabilized MHC complexes. The assay was performed as generally described in Rodenko et al. (Rodenko et al., 2006).
96 well MAXISorp plates (NUNC) were coated over night with 2 μg/ml streptavidin in PBS at room temperature, washed 4× and blocked for 1 h at 37° C. in 2% BSA containing blocking buffer. Refolded HLA-A*02:01/MLA-001 monomers served as standards, covering the range of 15-500 ng/ml. Peptide-MHC monomers of the UV-exchange reaction were diluted 100-fold in blocking buffer. Samples were incubated for 1 h at 37° C., washed four times, incubated with 2 μg/ml HRP conjugated anti-β2m for 1h at 37° C., washed again and detected with TMB solution that is stopped with […]. Absorption was measured at 450 nm. Candidate peptides that show a high exchange yield (preferably higher than 50%, most preferred higher than 75%) are generally preferred for a generation and production of antibodies or fragments thereof, and/or T cell receptors or fragments thereof, as they show sufficient avidity to the MHC molecules and prevent dissociation of the MHC complexes.

| peptide exchange yield [%] | Binder |
| --- | --- |
| ≥ 75 | KLLNDLTSI |
| ≥ 75 | TLIDATWLV |
| ≥ 75 | RLLDTTDVYLL |
| ≥ 75 | ALPQFFNDV |
| 50 to 75 | AVFDQTVTVI |
| 50 to 75 | LLDDQTVTF |
| 50 to 75 | IQDTSHLAV |
| ≥ 75 | FISDFTMTI |
| ≥ 75 | SLLDGSESAKL |
| 50 to 75 | FLDQTDETL |
| ≥ 75 | LLDSTAHLL |
| ≥ 75 | KTWDQSIAL |
| ≥ 75 | LLDATHQI |
| ≥ 75 | SLDISLPNL |
| ≥ 75 | ILDSTTIEI |
| ≥ 75 | FLDTSTADV |
| 50 to 75 | NLYNDLTNV |
| ≥ 75 | FLGEDISNFL |
| ≥ 75 | FLKDVTAQI |
| 50 to 75 | KLISDMGKDVSA |
| ≥ 75 | ALDDYTITF |
| ≥ 75 | SLLFQDITL |
| ≥ 75 | SLFDDSFSL |

Continued, binder first:

| Binder | peptide exchange yield [%] |
| --- | --- |
| YMDGTMSQV | 50 to 75 |
| WLIDKSMEL | ≥ 75 |
| KLLDLTVRI | ≥ 75 |
| SQTDLSPAL | ≥ 75 |
| YIYDGKDMSSL | 50 to 75 |
| SLSDVSQAV | 50 to 75 |
| TLDITIVNL | ≥ 75 |
| SLRDGTEVV | 50 to 75 |
| AIYHDITGISV | 50 to 75 |
| YVWDRTELL | ≥ 75 |
| ILDEAKDISF | 50 to 75 |
| SQDASLLKV | 50 to 75 |
| ILFDDSVFTL | ≥ 75 |
| ILFDPDNSSAL | ≥ 75 |
| AVDGTDARL | 50 to 75 |
| HMIDLTIHL | 50 to 75 |
| FLLDGTDMFHM | 50 to 75 |
| VLDDTLVIF | 50 to 75 |
| ILYDGSNIQL | ≥ 75 |
| FLNLFDHTL | ≥ 75 |
| QLMEKVQDV | 50 to 75 |
| HLCNHDVSL | ≥ 75 |

| Binder | peptide exchange yield [%] |
| --- | --- |
| YLFEDISQL | ≥ 75 |
| FMNDRSFIL | ≥ 75 |
| QLLGRDISL | ≥ 75 |
| FLGPIVDL | ≥ 75 |
| KLEERVYDV | ≥ 75 |
| FVDEHTIDI | 50 to 75 |
| ILTDITGHDV | 50 to 75 |
| VLMDGTLKQV | ≥ 75 |
| ALADLTGTVVNL | ≥ 75 |
| SLFAYPLPDV | ≥ 75 |
| RLLEGDFSL | ≥ 75 |
| GLDRTQLVNV | ≥ 75 |
| ILLDKSTVL | ≥ 75 |
| TLDATVVEL | ≥ 75 |
| VIDSTLVKV | 50 to 75 |
| GLVDGSSVTV | ≥ 75 |
| ILFDLTHRV | ≥ 75 |
| ALYDSTRELL | ≥ 75 |
| NVDSTILNL | ≥ 75 |
| AIDDTAARL | 50 to 75 |
| SLYDFTGEQMAA | 50 to 75 |

Reference: patent publication US20220111022A1 (IMMATICS BIOTECHNOLOGIES, published 2022)
